# Assay: soluble fraction after stress (log2 fold change); higher = more stays soluble; pooled small domains, quantitative proteomics
# Details: stress: pH 4
# Method in brief: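 Pooled custom libraries of small protein domains were stressed at pH 4 and then measured by high-throughput quantitative proteomics. The fold change in the amount of each domain that stays soluble after the acid stress serves as a measure of aggregation propensity. Fold changes are given on a log2 scale, and higher values mean more of the domain stayed soluble.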
sequence,measurement,value
HMGELDFYEEMRDDYLTGKIWNVGEIVEAKGMIGEIVRKGTNYISFVTDDNKVHKAWLHEIKL,soluble fraction (log2),-1.37
HMIDENILSEEIKHYIETNNYAKDDKLPSERSLASLFNVSRALVRKSLISLVDVNYLYVKDKSGYYING,soluble fraction (log2),-0.52
HMNKPLFVYPNPVHQGKINLSKATNFMVVDLLGQTVNKTNYGKDFSIDNLPNGVYFIKTTEGEIIKFMK,soluble fraction (log2),-0.496
HMEIEETKKNSRTKIPENFDYKLINGLSNEIRAKLELIRPIDLLQASRIDGMTPAALTLVHLWIKKYSG,soluble fraction (log2),-0.419
HMVMNKQEFLKILRDTLQSQLSSRETENHVEYYRTYIEEQMREGKTEIEILDVLGDPRLIARTILET,soluble fraction (log2),-0.253
HMSMQIILLDKVVNLGGLGDVVKVKDGYARNYLIPQGKAKRANTANLAEFEARRVELERLAAEQLAQAQA,soluble fraction (log2),-0.478
HMNELTDKQILLFSNKLAHNIPFSSKYSKPGESYEEFAERLANELIDPQKVKLYKPYLEEVGFK,soluble fraction (log2),0.112
HMHRTMFYLDVDLAEGQSVKMAVHEDDDPGELAARFADEHQLKSRAMEKLRSVIEENVRLHRRNQ,soluble fraction (log2),-0.306
HMPPDLSEAIQKRIEGKTDEALEILRKLYNEYPESTEIITMLGRTLLDAEEYALAAFRLEQALDLGG,soluble fraction (log2),-1.22
HMDPYLSGLLQKLAETDKKISFTRLRSEDLDGESREAIYEFIEKYSGRFGVRWLLNEFGLSPSVYYNYLHS,soluble fraction (log2),-0.644
HMIDELLDPTHRIMVRHPRVDYVSPGFLIGPDKDVILWGFTGGIIARLFDFLGWTRPWDQSHVQDLPPYML,soluble fraction (log2),-0.242
HMNMGEKIRSLIGQFGVTSEDLKNLSVANLLIRMNQEAGDSKTKGILASLLETVNKAGVGNLTPDALGIK,soluble fraction (log2),0.064
HMTTVKDRVYEILKREIVLGKLKPGEPINIAVLSTKLNISSAPLREALNMLSRDGLVTLNPRKHAAVSE,soluble fraction (log2),-0.0431
HMKVKEYKLVDWISTFTKNEGYGISQKAAMLLAEFLGDDLSRIANEIEKLKLLVEKGTTINDVHIEENI,soluble fraction (log2),-0.721
HMSHGFFELKTTQKEALIKLLDSHPNFTHTKTEADLTTAFLKLPMDAEQFNKLLFTNGIVLSHLVKRK,soluble fraction (log2),-0.276
HMAQTSAELIIEYLKRNDGFMELTDKSPADEIYETFGISKKNFKMAVGSLYKNRVIEIGQNGIRLVE,soluble fraction (log2),-0.0445
HMISDAEWTIMKALWQSEDKKMTLKEIAEAVADSGWSYTTVRTMVGRLVEKEAIEADESHPRNFRYSAA,soluble fraction (log2),-1.4
HMGRFAETVEHIVAAQLARRQGIPTMEQFASFFNVSRATFQRRLGEEGETLEQIKQRVRLRLALELLHP,soluble fraction (log2),-0.441
HMEISLAETLRSSLHMILGWYQNTGDKKLLELIRLHLQAYVNTGNSLNPEMEEIRAALETLGEGKEAFRP,soluble fraction (log2),-1.02
HMSRVTVDVNPDVLQWAIDKKGKGDIKNKFPKIDEWLNGISKPTIHQLENFAKYVSVPFGYLLLSKPPVE,soluble fraction (log2),0.00473
HMQLLDIGSAVRIIREPYFGRLGTVVELPPELMEIESGTHARVLKAKLDDGTVAVVPRANVEIIVE,soluble fraction (log2),-1.34
HMETKQYIVEAQDEGTRLDVYLTKELGQSRSYVQSLVKEGHVQVNGKTGKSNLKLSSSSEILVTIPEVQ,soluble fraction (log2),0.0538
HMPTELVYTVPASAEGLRLDHFLVQHVPHMTRALATELTGAGGVRVNGRRAKKGDRLPSGAEVRLER,soluble fraction (log2),0.286
HMSLQNTMANFAGGVLVLFLKPFKAGDYIVTKDGEGTVASIGLVYTTLLTIENKRIVIPNSSISNSPITN,soluble fraction (log2),-0.673
HMQDLTAQQQAILSFLKEHPKATRKEISENIPNITEDNIRYNLSQLQELGFVKSMGDSFIRIAI,soluble fraction (log2),0.216
HMGAPAISYSKFLEQVDRKNVASVTIYKDGRIDGVMTSGSRFATESPSDPGLVGDLLKAGVEIRAKPP,soluble fraction (log2),0.144
HMAEPSTSYTQFMDQAKEGKIKRVDVQGRTLTVTPTEGATYKITAPGDLWMVEDLRKAGVQVYGQP,soluble fraction (log2),0.076
HMKSERHALILSLIEKKNVETQEDLAELLKERGVAVTQATVSRDIKELRLIKVLSETGGYKYATVDKAE,soluble fraction (log2),0.109
HMRDGHEQLQGVLSAIKFHQANFLIGVLDDGTTVKGNMLSPQVGLEYTFRGRRERHPRWGEQFAFMDYRV,soluble fraction (log2),-1.82
HMDPLGHVIKKKRLQLGMTLRDLAAKAGVHHATIDRIETDQFKVVDPSTLVKIAEALHLDQLYLLSLN,soluble fraction (log2),-0.532
HMPEDQISYTDLIKQINDGNVEKIKMTVGSTTIKVNLKEQEEPKTAIVPSTQAFIELVQEKVQDGNEITLI,soluble fraction (log2),-0.39
HMSASIAEGTVIMLENTTNIRSGMSEDSSKVGTAYAGEKVTVVMSYAEGWTKVKWNGETGYIKTALLQL,soluble fraction (log2),-0.405
HMKSARQIAILEIIAEKSIETQEDLADALRLRGFQVTQATVSRDIKELRLVKALAPDGTYRYATAEK,soluble fraction (log2),0.264
HMKTKILAPIPGSIMVVDVKVGDTVKVGDRLVQLEAMKMENNITSEKAGKITAVLVTAGQKVLQNEVMIEL,soluble fraction (log2),-0.52
HMHVGVWIMNEKGEILLEQRASNKKVDPNKWARIGGHVDAGEKPIQAIQREILEEIGVKIPLENFIVLET,soluble fraction (log2),-0.592
HMSDFKDIILKLRNEQGFTQEKLADVLGTSKSTVGMWEMGVRFPSKELYEAIADYFNVDIDYLYGRTDIR,soluble fraction (log2),-1.35
HMENMRLILASNLRRIREERRLSLNKVSELTGVSKSMLGQIERGESNPTLQTVWKIANGLRVSLTDLTEVP,soluble fraction (log2),0.252
HMRKMELTEAAEKLIEEPDVVSAYRNMQQIFQQWREIGPVPREQRDEVWSHFKDLMTQVNRRHQAHFEN,soluble fraction (log2),-0.258
HMVSKEELANSIYENKTADELGNIVLRKGKYSGEMLRTIYVKDIGYLEWHSKQSYEYSNAVKWYLKKLE,soluble fraction (log2),-0.846
HMNSEEINDVRKAVDELPTHLREILLLNYFQQMSYVQISDSLEIPLGTVKSRLHAAVAAFRNAWQSSQEE,soluble fraction (log2),-0.154
HMLPIKLDLEIGENVRVVSGPLENFVGSVVSFDTDQQKVKLVVEMFGRKTPVELDFIEVQKLR,soluble fraction (log2),-1.47
HMNGGPHYLRDVRTSLGLSQADLAKAVGTSANMIHYLESGERALTLKWIRRISEALNVSPMRLIN,soluble fraction (log2),-0.0552
HMKLNEQSMQVIDRIVDRHRGRPGPVKLMLHDVQKELGYIPFEAMEKIAAASGVSADEVYGVVTFYTQFTT,soluble fraction (log2),-1.27
HMSKQQFLDELAARLREEGAELLVAENLNFYRSYIEEEVAKGRSEEEVLAELGNPALIARSILDAAGF,soluble fraction (log2),-1.15
HMTDKLIAYSVDGILNVITSEAQSVKVYAIDGRLVRILQLGEGRNEVSGLAKGIYIVDNRKVAV,soluble fraction (log2),0.0217
HMRPEKLVLKALRGAHGPLSAEEVAGRIEADGGAGLDVARVEHVLGQLERSGTVAALGGGKYLALR,soluble fraction (log2),0.123
HMFTKSNLEKLSNSELILKAIDSGNYSKIEFGGSEALNPDVPSYKKDLKNREELIEILSEMGM,soluble fraction (log2),-0.0908
HMQETMTNDEVISLTKAGLSSSIIIGKIRSSATNFDLSTDSLIKLKQAGVSDETVAAMLEAKS,soluble fraction (log2),0.181
HMVDQAFQTQLKNIQARTGKNLDELYAFIRASGLVKHGEIRDLAKRELSLGHGDANTLAKFYLESLAAAA,soluble fraction (log2),-0.103
HMGTVVKRNALVHAWTEFNGGRASTKLLALGPGKVGEWIELENPQSGRKLRGEVQVDGSVRLG,soluble fraction (log2),0.296
HMSNYLKSVEVFDPITNKWSYVSAMKVRRGYVAVVATMDRLYAIGGYDGENYLSTVEMYNPDTN,soluble fraction (log2),0.0787
HMLMSDEENAEFTKLYRQLVFKLHPDLNPNQTKDEENLWHKVQMAYKGGDLEEMRSLAIILDAQ,soluble fraction (log2),-0.547
HMSGLEDIKKKILEDAGIKKGSVKFVKVDKDYDDGIWKYEIDFVYDGKEYEYEIEVETGKILSRKTEKSD,soluble fraction (log2),0.165
HMAHPRTHEALNPLWEKYLGPNAGNDFFLSGGTSLKALMFLKDLEKTLNKRIAIHAFFKDPTYEHVVSD,soluble fraction (log2),-0.467
HMASVLTAKLSEREVDVLNLLARGFTNADIAAQLHLSEGTVRNHVSTIFAKLDVNDRTQAAVIAIRHGL,soluble fraction (log2),-0.176
